From the RNAGym collection of RNA variant scans (doi:10.1073/pnas.2313332121)

B1: TPR t1 (parent)
chain: GACCAAUCUGCCCUCAGAGCUCGAGAACAUCUUCGGAUGCAGAGGAGGCAGGCUUCGGUGGCGCGAUAGCGCCAACGUCCUCAACCUCCAAUGCAUCCCACCACAUGAUGAUGCCUGAAGAGCCUUGGUUUUUUG

Variants of: B1
Assay: polymerase ribozyme fitness, log enrichment relative to wild type (log ratio); higher = more active; in vitro selection for triplet polymerase activity
Method in brief: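 In triplicate, a single round of in vitro selection was run on each mutant library, PCR-built and transcribed, covering one subunit of a heterodimeric triplet polymerase ribozyme. Frozen incubation at −7 °C followed annealing with a biotinylated primer, partner subunit and triplets, and extended constructs were then gel-excised, streptavidin-captured and taken through RT-PCR. Fitness is the logarithm of genotype enrichment over wild-type enrichment, from inverse-variance-weighted replicate averages of Illumina-sequenced inputs and outputs. […] only genotypes with ≥10 input reads and ≥1 read per output were kept.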

With C73A C94A as the variant, how does the “polymerase ribozyme fitness (log ratio)” value read?
The value was -0.492.

Which “polymerase ribozyme fitness (log ratio)” value does the source give for C73U G110U here?
The value was -1.17.

Which “polymerase ribozyme fitness (log ratio)” value does the source give for G19A G77U U81A C114A here?
Its value is -1.67.

For C56U G69U C82U A84U, which “polymerase ribozyme fitness (log ratio)” value is on record?
The value was -3.

For G45U C70U C85U C89A C104U, which “polymerase ribozyme fitness (log ratio)” value is on record?
Its value is -5.61.

With A29G G61C as the variant, how does the “polymerase ribozyme fitness (log ratio)” value read?
Its value is -2.51.

With C20A U131A as the variant, how does the “polymerase ribozyme fitness (log ratio)” value read?
The value was -3.53.

With C85U U112A as the variant, how does the “polymerase ribozyme fitness (log ratio)” value read?
Its value is 0.416.

With A37U G44C C53G U55C G61A C89U G117C as the variant, how does the “polymerase ribozyme fitness (log ratio)” value read?
The value was -4.88.

Which “polymerase ribozyme fitness (log ratio)” value does the source give for C72G C80U here?
Its value is -0.861.

For G10U C20A A84U U131C, which “polymerase ribozyme fitness (log ratio)” value is on record?
The value was -2.84.

With U38G G52U as the variant, how does the “polymerase ribozyme fitness (log ratio)” value read?
Its value is -2.27.

Which “polymerase ribozyme fitness (log ratio)” value does the source give for C13G C62G A66U G113U here?
The value was -7.31.

Which “polymerase ribozyme fitness (log ratio)” value does the source give for G60U U131C here?
Its value is -0.0582.

With U9G A111U A118U G120A as the variant, how does the “polymerase ribozyme fitness (log ratio)” value read?
The value was -2.78.

Which “polymerase ribozyme fitness (log ratio)” value does the source give for G17U U38G G45A C88U C101U here?
Its value is -2.92.

With G69U C124G as the variant, how does the “polymerase ribozyme fitness (log ratio)” value read?
The value was 1.3.

For G51A G93A, which “polymerase ribozyme fitness (log ratio)” value is on record?
Its value is -3.45.

Which “polymerase ribozyme fitness (log ratio)” value does the source give for C89A C124A here?
The value was 0.985.

Which “polymerase ribozyme fitness (log ratio)” value does the source give for C8U G36U U78C C88G C101A here?
Its value is -3.59.

For A6C U9G, which “polymerase ribozyme fitness (log ratio)” value is on record?
Its value is -0.665.

With C22G C101A as the variant, how does the “polymerase ribozyme fitness (log ratio)” value read?
The value was -3.82.

With G63A A74U C102U A111U U129G as the variant, how does the “polymerase ribozyme fitness (log ratio)” value read?
Its value is -5.79.

For G35A G42A U106A U112G A121C G127U G128A, which “polymerase ribozyme fitness (log ratio)” value is on record?
The value was -5.37.

With G17U C40A G48U C70U C99A G113A G117C as the variant, how does the “polymerase ribozyme fitness (log ratio)” value read?
Its value is -6.87.

Which “polymerase ribozyme fitness (log ratio)” value does the source give for G10U C53A G77C U78A G107C A121U here?
Its value is -4.29.

For A41C C82U, which “polymerase ribozyme fitness (log ratio)” value is on record?
Its value is -1.12.

With G48A C94G as the variant, how does the “polymerase ribozyme fitness (log ratio)” value read?
Its value is -1.71.

For G71A A83G, which “polymerase ribozyme fitness (log ratio)” value is on record?
Its value is -1.61.

For A18U A29U U54G U78C C89G C114G, which “polymerase ribozyme fitness (log ratio)” value is on record?
Its value is -3.24.

Which “polymerase ribozyme fitness (log ratio)” value does the source give for G48U G57U C76G U78A G117A here?
The value was -2.42.

With U9A A90C as the variant, how does the “polymerase ribozyme fitness (log ratio)” value read?
Its value is -0.569.

Which “polymerase ribozyme fitness (log ratio)” value does the source give for A24U G61A here?
Its value is -5.9.

Which “polymerase ribozyme fitness (log ratio)” value does the source give for C8G C22G G36A C85U U112A here?
Its value is -2.18.

For C56U A105U G122A, which “polymerase ribozyme fitness (log ratio)” value is on record?
Its value is -2.96.

For G10C A26G G69A U125A, which “polymerase ribozyme fitness (log ratio)” value is on record?
The value was -5.51.

With A24G G128A U130G as the variant, how does the “polymerase ribozyme fitness (log ratio)” value read?
Its value is -4.18.

With C70U C104G as the variant, how does the “polymerase ribozyme fitness (log ratio)” value read?
Its value is -7.05.

For U32C G35C C53A U78A, which “polymerase ribozyme fitness (log ratio)” value is on record?
The value was -4.25.

Which “polymerase ribozyme fitness (log ratio)” value does the source give for C34A C88A U106C C114A here?
The value was -6.05.

With A43U G60A as the variant, how does the “polymerase ribozyme fitness (log ratio)” value read?
Its value is -1.98.

Which “polymerase ribozyme fitness (log ratio)” value does the source give for C11G A43G C85A C89G C94U here?
The value was -2.52.

With C101U G110C as the variant, how does the “polymerase ribozyme fitness (log ratio)” value read?
Its value is -3.42.

With G60C U92G as the variant, how does the “polymerase ribozyme fitness (log ratio)” value read?
The value was -3.59.

With C99A G120C as the variant, how does the “polymerase ribozyme fitness (log ratio)” value read?
Its value is -3.95.

Which “polymerase ribozyme fitness (log ratio)” value does the source give for C8G G47C C82U here?
Its value is -1.06.

Which “polymerase ribozyme fitness (log ratio)” value does the source give for C11A C62U C94A here?
Its value is -2.43.

With A46G C73G C82U G93A C104A as the variant, how does the “polymerase ribozyme fitness (log ratio)” value read?
The value was -4.85.

With U33C C70G as the variant, how does the “polymerase ribozyme fitness (log ratio)” value read?
The value was -6.4.

Which “polymerase ribozyme fitness (log ratio)” value does the source give for G19C G42C C124G here?
The value was -0.406.

With C11G C56G C79U as the variant, how does the “polymerase ribozyme fitness (log ratio)” value read?
The value was -0.259.

Which “polymerase ribozyme fitness (log ratio)” value does the source give for G39A G44A U78C here?
The value was -1.89.

Which “polymerase ribozyme fitness (log ratio)” value does the source give for C11G G48U C72A here?
Its value is -0.215.

With G19A C62A C82A G93U U112A as the variant, how does the “polymerase ribozyme fitness (log ratio)” value read?
Its value is -2.13.

With A18C C89G U116C C124A as the variant, how does the “polymerase ribozyme fitness (log ratio)” value read?
The value was -0.0811.

With C8G A41C G63U G113A A118G as the variant, how does the “polymerase ribozyme fitness (log ratio)” value read?
Its value is -3.33.

For A5G U38G G48C G69U C79A, which “polymerase ribozyme fitness (log ratio)” value is on record?
Its value is -2.33.

For C11U G120A, which “polymerase ribozyme fitness (log ratio)” value is on record?
The value was 0.0588.

With C11G C73A as the variant, how does the “polymerase ribozyme fitness (log ratio)” value read?
The value was 0.279.

With A29U G117C as the variant, how does the “polymerase ribozyme fitness (log ratio)” value read?
The value was -3.48.

For G61C C104U A111C, which “polymerase ribozyme fitness (log ratio)” value is on record?
The value was -1.59.

With G19C C20A as the variant, how does the “polymerase ribozyme fitness (log ratio)” value read?
The value was -6.28.

Which “polymerase ribozyme fitness (log ratio)” value does the source give for C12A C28U G60A G122A U133G here?
The value was -2.67.

Which “polymerase ribozyme fitness (log ratio)” value does the source give for C3U A6U G52U A111U A118U here?
Its value is -4.02.

With G77A C98U U126C U130C as the variant, how does the “polymerase ribozyme fitness (log ratio)” value read?
The value was -1.62.

Which “polymerase ribozyme fitness (log ratio)” value does the source give for A43C C62G G120A here?
Its value is -4.98.

Which “polymerase ribozyme fitness (log ratio)” value does the source give for C11U A84G C89U G93U here?
Its value is -2.61.

Which “polymerase ribozyme fitness (log ratio)” value does the source give for G77C U96A here?
The value was -1.58.

For C31A C56A C98A, which “polymerase ribozyme fitness (log ratio)” value is on record?
The value was -5.09.

With A46U C49U G58C G60A A95C U112G U132A as the variant, how does the “polymerase ribozyme fitness (log ratio)” value read?
Its value is -3.98.

For C12U C13A C114G, which “polymerase ribozyme fitness (log ratio)” value is on record?
Its value is -4.

For C15U U81G C82G A119G G120U C123A, which “polymerase ribozyme fitness (log ratio)” value is on record?
The value was -0.519.

For C79U C102U G117A, which “polymerase ribozyme fitness (log ratio)” value is on record?
Its value is -3.4.

With A2G C97U G117A A119G as the variant, how does the “polymerase ribozyme fitness (log ratio)” value read?
The value was -0.0934.

With A6U C115U A119U U130G as the variant, how does the “polymerase ribozyme fitness (log ratio)” value read?
The value was -1.27.

With G48U C56U as the variant, how does the “polymerase ribozyme fitness (log ratio)” value read?
The value was -0.606.

With A37G C76U as the variant, how does the “polymerase ribozyme fitness (log ratio)” value read?
Its value is -1.3.

For A43U G77U C88G, which “polymerase ribozyme fitness (log ratio)” value is on record?
Its value is -2.17.

Which “polymerase ribozyme fitness (log ratio)” value does the source give for C12U G122A here?
Its value is -0.00508.

For C53A G61C G110A A119U U133A, which “polymerase ribozyme fitness (log ratio)” value is on record?
The value was -4.96.

Which “polymerase ribozyme fitness (log ratio)” value does the source give for U21G A24G here?
The value was -2.02.

Which “polymerase ribozyme fitness (log ratio)” value does the source give for C62U C98A A103C U129C here?
Its value is -6.12.

For C8U G42U, which “polymerase ribozyme fitness (log ratio)” value is on record?
Its value is -0.81.

With C13A U21A A37C G93A as the variant, how does the “polymerase ribozyme fitness (log ratio)” value read?
Its value is -2.9.
